# Measured values: the RNAGym collection of RNA variant scans (doi:10.7554/elife.80360)
# B1: HDV Ribozyme (parent)
# chain: GGCCGGCAUGGUCCCAGCCUCCUCGCUGGCGCCGGCUGGGCAACAUUCCGAGGGGACCGUCCCCUCGGUAAUGGCGAAUGGGACCCA
# Variants of: B1
# Experiment: self-cleavage, relative activity (ratio to wild type); higher = more cleavage; co-transcriptional
row,Variant,self-cleavage
1,A45U C61U,0.876
2,C62U G81U,0.529
3,G6U C61A,0.717
4,C21G G68C,0.0554
5,G11A U60C,0.43
6,C24U C26A,0.955
7,G39U C61G,0.464
8,C22U G38A,0.931
9,C49A G53C,0.506
10,C21U G82U,0.115
11,C7U G50C,0.689
12,G5U G67A,0.32
13,C22A G40C,0.0282
14,G34C C86G,0.19
15,C30U C85A,0.441
16,C13A U46C,0.203
17,C15U A70C,0.776
18,U23A C49G,1.16
19,C30G C64A,0.0361
20,G5A U69A,0.0519
21,G2A C32G,0.0441
22,U12C C26U,0.776
23,G2C G31U,0.109
24,U47C C58A,0.779

row,Variant,self-cleavage
1,U37G A43G,0
2,G1C A70C,0.185
3,U47G C84U,0.346
4,C7A C62A,0.618
5,G25A C48G,0.122
6,G40A C64A,0.89
7,U12C G34A,0.0692
8,G1U G25U,0.248
9,U9C C21A,0.0639
10,U79G C84A,0.38
11,A45G G53U,0.884
12,U20G G28U,0.0831
13,C32U C85A,0.849
14,G5U U46C,0
15,C36U C61G,0.466
16,G5U G82C,0
17,C7A C15A,0.0415
18,U9C U27C,0.554
19,C57U U79A,0.752
20,C32A G68A,0.185
21,G39C G80A,0.0511
22,C22U A45C,0.113
23,C44G C63A,0.491
24,C24A U72C,0.253

row,Variant,self-cleavage
1,C7U U72C,0.268
2,U47A C49G,1.42
3,G73C C85A,0.231
4,G54C U79A,0.755
5,U47A A83C,0.391
6,C36G U47A,0.177
7,C21A G68U,0.0432
8,G6A C75A,0.17
9,C24A G50U,0.641
10,U23C U72A,0.776
11,U23G C30G,0.0536
12,G35U A43U,0.282
13,G17C G68U,0.425
14,A16C A56C,0.639
15,A45C G76A,0.869
16,U37C C41A,0.929
17,C18A G82U,0.0723
18,U12G C26A,0.748
19,G5U C85A,0.594
20,U23A C30U,0.554
21,C49U C85U,0.799
22,U20G A70C,0.217
23,G39C C48U,0.405
24,C33G C49U,0.0923

row,Variant,self-cleavage
1,C26A G73U,0.415
2,G1U A51U,0.462
3,A70G G82A,0.394
4,C13A A83C,0.166
5,G31C G68C,0.138
6,C19A C49G,0.0733
7,G31A U72C,0.256
8,G2A G80U,0.0227
9,G67U A83C,0.635
10,U47A C58A,0.957
11,A70C A77G,0.808
12,U47C C62G,0.415
13,G1A G39C,0
14,C19U G28U,0.172
15,G1U A70G,0.536
16,C13G G76U,0.104
17,G40A G50U,0.842
18,G5C G34U,0.0426
19,A70C U72G,0.185
20,C44A C84A,0.541
21,C4A G40U,0.199
22,U9C A42C,0.475
23,G6U C75A,0.0875
24,G50U G54C,0.768

row,Variant,self-cleavage
1,C19G C26U,0.249
2,G53C C61U,1.2
3,C36G C49U,0.0811
4,G5A C33U,0.831
5,C26G G35U,0.499
6,C33G A78U,0.0875
7,G40U U60G,0.796
8,G68U A70U,0.849
9,C36G C84U,0.0755
10,A16U U37G,0
11,C58U C66U,0.911
12,G53C A87U,0.903
13,A16C C33A,0.208
14,G29U U69C,0.128
15,U23C G39C,0.244
16,A56G G82U,0.244
17,G29A G52A,0.0554
18,U23A U46G,1.06
19,A51G G73U,0.397
20,G34C A70G,0.0898
21,U27A C30U,0.677
22,G40A G73C,0.544
23,C44G A56G,0.886
24,C18U G74A,0.0639

row,Variant,self-cleavage
1,C21G G39A,0.0563
2,U46A U72A,0.615
3,U79C A83U,0.323
4,C48G A83C,0.573
5,G31C G50A,0.343
6,G2C G28U,0.014
7,A43C U60C,0.532
8,C26U A43G,0.745
9,G6A A43U,0.116
10,U9G G82U,0.767
11,U20C C36A,0
12,C32G G82A,0.0997
13,C18G G29U,0.601
14,C3U C44A,0.492
15,U20A A70G,0.147
16,C4U G55A,0.772
17,U20G C30U,0
18,G10C C66G,0.646
19,U20A A42U,0
20,G68U G73A,0.481
21,G5C A83G,0.0519
22,C4G A77G,0.172
23,G17C G53U,0.298
24,G54A C57A,0.818

row,Variant,self-cleavage
1,A16U G59U,0.966
2,C36U A71C,0.408
3,C44G A87C,0.621
4,C4G C19G,0.086
5,C48G A87U,1.09
6,U46C G74U,0.554
7,G2A C57A,0.258
8,G55A U69C,0.918
9,C4A U37G,0
10,C3A C58G,0.606
11,U46A U65C,0.65
12,C21U C57A,0.233
13,C15G G80A,0.635
14,G35U A56G,0.393
15,A51U C75A,0.123
16,G54U A78U,0.302
17,U60A G82C,0.148
18,C22G U72G,0.0554
19,G34C G82A,0.0308
20,G31C C44U,0.106
21,C26A U46G,0.86
22,G53C C58U,1.14
23,A8U G54A,0.831
